Source: the supplement of paper PMC7125110
± gives the standard error. This sample holds only a part of the variants without activity.

B1: glmS ribozyme (parent)
chain: AUAAAAGCGCCAGAACUACAGAAAUGUAGUUGACGAGGAGGAGGUUUAUCGAAUUUUCGGCGGAUGCCUCCAAA

Key:
Settings in all cases: with glucosamine-6-phosphate
glucosamine-6-phosphate [1] = variants of: B1; assay: self-cleavage kobs at 40 uM GlcN6P; higher = faster cleavage; RNA array
Method in brief: (§1)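 Glucosamine-6-phosphate in HEPES/KCl/Mg(OAc)2 buffer, at 40 μM to 10 mM, was flowed over barcoded ribozyme variants transcribed in situ by E. coli RNA polymerase on sequenced MiSeq chips. Tracking was through a hybridised Cy3 probe at 37 °C. kobs, kcat and KM came from exponential decay fits and weighted Michaelis–Menten fits of normalised per-tile medians.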

glucosamine-6-phosphate [2] = variants of: B1; assay: self-cleavage kobs at 10000 uM GlcN6P; higher = faster cleavage; RNA array
Method in brief: as §1

glucosamine-6-phosphate [3] = variants of: B1; assay: self-cleavage kobs at 160 uM GlcN6P; higher = faster cleavage; RNA array
Method in brief: as §1

glucosamine-6-phosphate [4] = variants of: B1; assay: self-cleavage kobs at 640 uM GlcN6P; higher = faster cleavage; RNA array
Method in brief: as §1

glucosamine-6-phosphate [5] = variants of: B1; assay: self-cleavage kobs at 2500 uM GlcN6P; higher = faster cleavage; RNA array
Method in brief: as §1

Row | Variant | self-cleavage kobs at 40 uM GlcN6P (glucosamine-6-phosphate [1]) [s⁻¹] | self-cleavage kobs at 10000 uM GlcN6P (glucosamine-6-phosphate [2]) [s⁻¹] | self-cleavage kobs at 160 uM GlcN6P (glucosamine-6-phosphate [3]) [s⁻¹] | self-cleavage kobs at 640 uM GlcN6P (glucosamine-6-phosphate [4]) [s⁻¹] | self-cleavage kobs at 2500 uM GlcN6P (glucosamine-6-phosphate [5]) [s⁻¹]
1 | U30G G41U C68A | < 1e-05 | < 1e-05 |  |  | 
2 | A14C C70U | 0.000159 ± 1.4e-05 | 0.00953 ± 0.0013 | 0.000308 ± 3.9e-05 | 0.000897 ± 9.5e-05 | 0.00439 ± 0.0007
3 | G40A C58G C70U | < 1e-05 | < 1e-05 |  |  | 
4 | G38C A39C G40C C50A A53G U65C | < 1e-05 |  |  |  | 
5 | G60U U65A | < 1e-05 | < 1e-05 | < 1e-05 | < 1e-05 | < 1e-05
6 | A36G A39U C68U | < 1e-05 | < 1e-05 |  |  | 
7 | G37C A39G C50U | < 1e-05 |  |  |  | 
8 | U31G C71A | 0.000103 ± 1.4e-05 | 0.00392 ± 0.00068 | 0.000505 ± 0.00012 | 0.000376 ± 8.1e-05 | 0.000715 ± 0.00018
9 | G51A U55G C68G | < 1e-05 | < 1e-05 |  |  | 
10 | U30C A36C U69G | 0.000181 ± 7.1e-05 |  |  | 0.000264 ± 0.00013 | 
11 | A14G C34U C50G C68G | 7.72e-05 ± 1.6e-05 |  |  |  | 
12 | G7U U46C C70G | < 1e-05 | < 1e-05 |  |  | < 1e-05
13 | A6G G35U U56A | < 1e-05 |  |  |  | 
14 | G43C U46G | < 1e-05 |  | < 1e-05 | < 1e-05 | < 1e-05
15 | U30A A53C G60U | < 1e-05 |  | < 1e-05 | < 1e-05 | < 1e-05
16 | A6U G13C A15U | < 1e-05 | < 1e-05 |  |  | 
17 | A6G A14U U31C C50G | 4.57e-05 ± 2.1e-05 | 0.000265 ± 9.7e-05 |  |  | 
18 | A33G A39U G41C | < 1e-05 | < 1e-05 |  |  | 
19 | G40U C68A | < 1e-05 | < 1e-05 | < 1e-05 | < 1e-05 | < 1e-05
20 | G37A A39C G40U | < 1e-05 | 4.03e-05 ± 1e-05 |  |  | 
21 | G9A U45C | < 1e-05 | < 1e-05 | < 1e-05 |  | 
22 | A14G U47G C58G C71U | 4.07e-05 ± 2e-05 | 9.43e-05 ± 1.6e-05 |  |  | 
23 | A12G A48G G63A A64G | < 1e-05 | < 1e-05 |  |  | 
24 | C8G U56G C70U C71A | < 1e-05 |  | < 1e-05 | < 1e-05 | < 1e-05

Row | Variant | self-cleavage kobs at 40 uM GlcN6P (glucosamine-6-phosphate [1]) [s⁻¹] | self-cleavage kobs at 10000 uM GlcN6P (glucosamine-6-phosphate [2]) [s⁻¹] | self-cleavage kobs at 160 uM GlcN6P (glucosamine-6-phosphate [3]) [s⁻¹] | self-cleavage kobs at 640 uM GlcN6P (glucosamine-6-phosphate [4]) [s⁻¹] | self-cleavage kobs at 2500 uM GlcN6P (glucosamine-6-phosphate [5]) [s⁻¹]
25 | C8U C68G | 0.000619 ± 0.00023 | 0.000231 ± 5.8e-05 |  |  | 
26 | A36G U45C U56A | < 1e-05 |  |  |  | 
27 | G29A G59U G63A A64U | < 1e-05 | < 1e-05 |  |  | 
28 | U30G G51A | < 1e-05 |  | < 1e-05 | < 1e-05 | 
29 | U56A G59C | < 1e-05 | < 1e-05 | < 1e-05 | < 1e-05 | < 1e-05
30 | C34U G41C G59A A64G | < 1e-05 |  | < 1e-05 | < 1e-05 | 
31 | C11U G13C C16A U49A | < 1e-05 |  | < 1e-05 | < 1e-05 | 
32 | A6G G51C | < 1e-05 |  | < 1e-05 | < 1e-05 | < 1e-05
33 | A6C A33G | < 1e-05 | < 1e-05 |  | < 1e-05 | 
34 | A48C G63U | < 1e-05 | < 1e-05 |  | < 1e-05 | < 1e-05
35 | G9A U47C | < 1e-05 |  | < 1e-05 | < 1e-05 | < 1e-05
36 | G44A C61G | < 1e-05 | < 1e-05 | < 1e-05 |  | < 1e-05
37 | A14U G43U G51U | < 1e-05 |  |  |  | < 1e-05
38 | A12U U65A C67A | 6.19e-05 ± 1.3e-05 | 0.000114 ± 2e-05 |  |  | 
39 | C8U C50A G51A U69G | 0.00046 ± 0.00016 | 0.000709 ± 0.00014 |  |  | 
40 | A15G A42G C68U | 0.000393 ± 0.00011 | 0.0101 ± 0.0045 |  |  | 
41 | G9U G40C | < 1e-05 | < 1e-05 | < 1e-05 | < 1e-05 | 
42 | A15C U49C | < 1e-05 | < 1e-05 | < 1e-05 | < 1e-05 | < 1e-05
43 | G32U A53G A64U | < 1e-05 |  |  |  | 
44 | A36C C50G C70U | 0.000435 ± 0.00014 | 0.000831 ± 0.00026 |  |  | 0.00027 ± 0.0001
45 | A39U G62U | < 1e-05 | < 1e-05 |  |  | 
46 | G40U G63U | < 1e-05 | < 1e-05 | < 1e-05 |  | 
47 | A36G A42G A52G | < 1e-05 |  |  | < 1e-05 | < 1e-05
